We go through one protein from patent US8304206.

For this data set, the target named is T1, SIRT1 Acetylated Peptide Substrate Ac-EE-K(biotin)-GQSTSSHSK(Ac)NleSTEG-K(5TMR)-EE-NH2 (SEQ ID NO: 34).
T1 chain: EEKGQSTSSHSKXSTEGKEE

Values joined by “and” are separate entries in the source; they are usually repeats but may differ in a detail not shown here. Identical values can stand only once.

B1: SIRT1 protein (human SIRT1 enzyme), expressed in E. coli BL21(DE3) as an N-terminal His-tag fusion protein (protein)
chain: MADEAALALQPGGSPSAAGADREAASSPAGEPLRKRPRRDGPGLERSPGEPGGAAPEREVPAAARGCPGAAAAALWREAEAEAAAAGGEQEAQATAAAGEGDNGPGLQGPSREPPLADNLYDEDDDDEGEEEEEAAAAAIGYRDNLLFGDEIITNGFHSCESDEEDRASHASSSDWTPRPRIGPYTFVQQHLMIGTDPRTILKDLLPETIPPPELDDMTLWQIVINILSEPPKRKKRKDINTIEDAVKLLQECKKIIVLTGAGVSVSCGIPDFRSRDGIYARLAVDFPDLPDPQAMFDIEYFRKDPRPFFKFAKEIYPGQFQPSLCHKFIALSDKEGKLLRNYTQNIDTLEQVAGIQRIIQCHGSFATASCLICKYKVDCEAVRGDIFNQVVPRCPRCPADEPLAIMKPEIVFFGENLPEQFHRAMKYDKDEVDLLIVIGSSLKVRPVALIPSSIPHEVPQILINREPLPHLHFDVELLGDCDVIINELCHRLGGEYAKLCCNPVKLSEITEKPPRTQKELAYLSELPPTPLHVSEDSSSPERTSPPDSSVIVTLLDQAAKSNDDLDVSESKGCMEEKPQEVQTSRNVESIAEQMENPDLKNVGSSTGEKNERTSVAGTVRKCWPNRVAKEQISRRLDGNQYLFLPPNRYIFHGAEVYSDSEDDVLSSSSCGSNSDSGTCQSPSLEEPMEDESEIEEFYNGLEDEPDVPERAGGAGFGTDGDDQEAINEAISVKQEVTDMNYPSNKS
In the case of B1, the “Km (mass spectrometry deacetylase assay, replicate plate)” value was 11.2 µM and 11.9 µM; the Peptide Km (mean of 2 replicate plates, mass spectrometry assay) came to 11.6 µM; the “deacetylation of the peptide (conversion to deacetylated product, mass spectrometry)” value is “SIRT1 deacetylation activity is dependent on both enzyme concentration and incubation time. Concentrations of enzyme between 5-20 nM result in product formation well above background”; the “decrease of Km for peptide substrate at 1.2 µM resveratrol (against DMSO vehicle)” value is listed as 2%. For the same protein, the “decrease of Km for peptide substrate at 3.7 µM resveratrol (against DMSO vehicle)” value was 14%, the “decrease of Km for peptide substrate at 11 µM resveratrol (against DMSO vehicle)” value was found to be 14%, the “decrease of Km for peptide substrate at 33 µM resveratrol (against DMSO vehicle)” value was determined as 32% and the “decrease of Km for peptide substrate at 100 µM resveratrol (against DMSO vehicle)” value came out at 46%.
